From article PMC6052341, “Phosphorylation of FtsZ and FtsA by a DNA Damage-Responsive Ser/Thr Protein Kinase Affects Their Functional Interactions in Deinococcus radiodurans” (mSphere, 2018)

T1: P-FtsA, phosphorylated form of FtsA of Deinococcus radiodurans, purified recombinant (Deinococcus radiodurans, UniProt Q9RWN6 1-517, phosphorylated by co-expressed RqkA (checked with anti-phospho-Ser/Thr antibodies); sites reported for FtsA: threonine 272, serine 370 and serine 386)
T1 construct: FtsA, cell division protein of Deinococcus radiodurans R1; same plasmid as m3, co-expressed with the kinase RqkA; also called phosphorylated FtsA
T1 sequence (looked up): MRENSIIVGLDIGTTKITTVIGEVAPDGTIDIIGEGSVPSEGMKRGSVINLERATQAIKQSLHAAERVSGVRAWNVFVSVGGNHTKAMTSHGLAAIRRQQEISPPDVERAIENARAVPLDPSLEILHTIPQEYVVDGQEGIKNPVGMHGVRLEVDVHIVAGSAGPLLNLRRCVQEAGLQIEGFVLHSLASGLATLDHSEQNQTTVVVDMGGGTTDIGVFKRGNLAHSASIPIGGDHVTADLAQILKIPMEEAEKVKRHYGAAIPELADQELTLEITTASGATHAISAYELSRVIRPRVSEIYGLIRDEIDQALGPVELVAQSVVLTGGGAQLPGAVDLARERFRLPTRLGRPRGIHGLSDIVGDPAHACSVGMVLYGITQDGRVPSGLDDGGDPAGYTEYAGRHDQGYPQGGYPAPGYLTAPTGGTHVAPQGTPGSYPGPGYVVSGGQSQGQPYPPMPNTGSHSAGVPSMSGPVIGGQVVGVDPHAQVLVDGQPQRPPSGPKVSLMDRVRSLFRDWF

B1: FtsZ of Deinococcus radiodurans, purified recombinant (natural protein, UniProt Q9RWN5 1-371, looked up)
chain: MQAARIRVIGLGGAGNNAVNRMIESGLEGVEFIAGNTDAQVLAKSHAEVRIQLGDRLTRGLGAGADPKVGEEAAVEDRDRIKEYLDDTDMLFITAGMGGGTGTGSAPVVAEIAREMGILTVAIVTRPFKFEGPKRMRVAEEGMSKLADRVDGMIVVNNEKLLTAVDKKVSFREAFLIADRVLYYGVKGISDVINVEGMINLDFADVRNLLANSGTVLMGIGAGRGDKMAEEAAMSAIHSPLLERGIEGARRILVNVTGGYDLSMTDANEIVEKIREATGFDDPDILFGITPDEAAGDEVRVTVIATGFGDNTYAAPLGGVVSSGRGGYDQGGYGSGLVRPVRGGQGGLGGGSSYDPKDYDIPAFLRNVGGQ
notes: FtsZ, cell division protein of Deinococcus radiodurans R1; also called FZ; unphosphorylated FtsZ; source: E. coli BL21(DE3) pLysS from pFTSZ, purified (nickel-chelating Sepharose, Ni-NTA agarose)
B2: P-FtsZ, phosphorylated form of FtsZ of Deinococcus radiodurans, purified recombinant (natural protein, UniProt Q9RWN5 1-371, looked up)
chain: B1 chain
modifications: phosphorylated by co-expressed RqkA (checked with anti-phospho-Ser/Thr antibodies); sites mapped on FtsZ phosphorylated by RqkA in vitro: serine 235 and serine 335
notes: FtsZ, cell division protein of Deinococcus radiodurans R1; same plasmid as m1, co-expressed with the kinase RqkA; also called PFZ; phosphorylated FtsZ
B3: FtsA of Deinococcus radiodurans, purified recombinant (natural protein, UniProt Q9RWN6 1-517, looked up)
chain: T1 sequence (looked up)

What was measured:
[1] = target: T1, P-FtsA, phosphorylated form of FtsA of …; experiment: SPR; reverse manner: FtsZ or P-FtsZ (20 µM) immobilised on a bare gold sensor chip; FtsA or P-FtsA (4 to 20 µM) in the mobile phase; conditions: both partners purified
[2] = target: B3; experiment: as above; conditions: both partners purified
[3] = target: T1, P-FtsA, phosphorylated form of FtsA of …; experiment: SPR; FtsA or P-FtsA (25 µM) immobilised on a bare gold sensor chip by EDC-NHS chemistry at 20°C, about 200 response units; running buffer 20 mM Tris pH 7.6; FtsZ or P-FtsZ (6 to 30 µM) with 1 mM GTP and 1 mM MgCl2 in the mobile phase; AutoLab Esprit; conditions: both partners purified
[4] = target: B3; experiment: as above; conditions: both partners purified
[5] = target: B1; experiment: cell-based or functional assay

Binder	Kd [1]	Kd [2]	Kd [3]	Kd [4]	stimulation of the GTPase activity of 5 µM FtsZ by 5 µM FtsA (malachite green assay; TLC of [32P]GTP to [32P]GDP) [5]
B1	5.17 µM	7.93 µM	8.35 µM	6.83 µM	
B2	58.3 µM	65.2 µM	15 µM	10.3 µM	
B3					~1.5 fold
